The values that follow come from US20180258172A1 (ZymoGenetics, published 2018).

For assay [1], the target named is T1, human zB7H6 (full-length, on cells) (human, UniProt Q68D85 25-454).
T1 construct: also called hzB7H6; hypothetical protein DKFZP686I21167
T1 sequence: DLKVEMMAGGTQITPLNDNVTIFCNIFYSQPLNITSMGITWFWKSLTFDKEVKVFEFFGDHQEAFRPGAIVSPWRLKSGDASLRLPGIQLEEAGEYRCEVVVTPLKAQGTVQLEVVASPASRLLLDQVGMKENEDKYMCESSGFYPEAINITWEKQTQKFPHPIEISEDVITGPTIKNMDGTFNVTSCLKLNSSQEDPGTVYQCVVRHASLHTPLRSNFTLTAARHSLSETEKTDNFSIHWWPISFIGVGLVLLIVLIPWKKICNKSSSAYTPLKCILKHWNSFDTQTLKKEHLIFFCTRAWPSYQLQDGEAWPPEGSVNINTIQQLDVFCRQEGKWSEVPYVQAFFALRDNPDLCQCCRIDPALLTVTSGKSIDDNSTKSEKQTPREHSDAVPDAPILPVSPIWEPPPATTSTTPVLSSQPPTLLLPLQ
Briefly: competition FACS on K562 cells against NKp30/mFc2, 100-fold mass excess. As to the method: K562 cells were probed by FACS with a soluble form of NKp30 (NKp30/mFc2 (SEQ ID NO:8), containing the extracellular domain of NKp30 and a murine Fc fragment). K562 cells were resuspended in PBS/2% FBS at a concentration of 1.6×10⁶ cells/ml (160,000 cells/sample). 100 μl samples were aliquoted and 1 μl of whole human IgG (Jackson #009-000-003) added to each. NKp30/mFc2 probe was added at a concentration of 2 μg/ml together with 10 μg/ml Heparin and 100-fold mass excess of a VASP protein (NKp30/VASP or a control VASP protein, human zB7R1/VASP (SEQ ID NO:12) or B7-DC/VASP (SEQ ID NO:13)). Cells were incubated for 1 hour on ice and washed with 2 ml cold PBS. Washed cells were resuspended in 100 μl of PBS/2% FBS with 1 μl PE anti-mIgG (Jackson 115-116-071) and incubated for 30 minutes on ice. Cells were then washed twice with 2 ml cold PBS, resuspended in 500 μl of PBS, and analyzed for PE staining on a FACSCalibur.

The target of another assay is T2, NKp30/mFc2.
T2 construct: also called soluble NKp30 fusion protein; NKp30/mFc2-biotin
T2 chain: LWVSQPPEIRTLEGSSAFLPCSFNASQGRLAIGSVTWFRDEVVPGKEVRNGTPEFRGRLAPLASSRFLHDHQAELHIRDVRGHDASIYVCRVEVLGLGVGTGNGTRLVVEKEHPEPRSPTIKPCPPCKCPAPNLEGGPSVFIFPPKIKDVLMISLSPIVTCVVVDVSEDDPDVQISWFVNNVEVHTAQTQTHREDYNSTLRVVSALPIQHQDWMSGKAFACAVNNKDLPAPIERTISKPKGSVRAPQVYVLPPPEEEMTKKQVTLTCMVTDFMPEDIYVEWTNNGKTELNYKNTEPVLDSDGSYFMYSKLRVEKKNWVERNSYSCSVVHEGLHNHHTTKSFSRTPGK
Briefly: competition FACS: soluble zB7H6/VASP at 100-fold mass excess competed NKp30/mFc2-biotin binding to K562, 293F and P815 zB7H6 cells. As to the method: Cells were resuspended in PBS/2% FBS at a concentration of 1.5×10⁶ cells/ml (150,000 cells/sample). 100 μl samples were aliquoted with 100 μg/ml of whole human IgG (Jackson #009-000-003) included for Fc receptor blocking. NKp30/mFc2-biotin probe was added at a concentration of 2 μg/ml and 100-fold mass excess of a VASP protein (NKp30/VASP or human zB7H6/VASP) or a control VASP protein (B7H3/VASP). Cells were incubated for 1 hour on ice and washed with 2 ml cold PBS. Washed cells were resuspended in 100 μl of PBS/2% FBS with streptavidin-PE (BD:554061) at 1 μg/ml and incubated for 15 minutes on ice. Cells were then washed with 1 ml cold PBS, resuspended in 250 μl of PBS, and analyzed for PE staining on a FACSCalibur.

B1: NKp30/VASP (receptor)
chain: LWVSQPPEIRTLEGSSAFLPCSFNASQGRLAIGSVTWFRDEVVPGKEVRNGTPEFRGRLAPLASSRFLHDHQAELHIRDVRGHDASIYVCRVEVLGLGVGTGNGTRLVVEKEHPEPRSGSGGSGGSDLQRVKQELLEEVKKELQKVKEEIIEAFVQELRGSGGHHHHHH
notes: no limits or signal peptide residues stated; also called soluble NKp30/VASP A1683F; NKp30/VASP-A647
Consider B1, for which, in assay [1], the binding result is on record as “binds”.

B2: hzB7H6/VASP-His6 (ligand)
chain: DLKVEMMAGGTQITPLNDNVTIFCNIFYSQPLNITSMGITWFWKSLTFDKEVKVFEFFGDHQEAFRPGAIVSPWRLKSGDASLRLPGIQLEEAGEYRCEVVVTPLKAQGTVQLEVVASPASRLLLDQVGMKENEDKYMCESSGFYPEAINITWEKQTQKFPHPIEISEDVITGPTIKNMDGTFNVTSCLKLNSSQEDPGTVYQCVVRHASLHTPLRSNFTLTAARHSLSETEKTDNFSIHWWPEPRSGSGGSGGSDLQRVKQELLEEVKKELQKVKEEIIEAFVQELRGSGGHHHHHH
notes: also called human zB7H6/VASP; zB7H6 C(VASP)H6
Take B2: the binding result with NKp30/mFc2 is recorded as “binds”.
